In patent US20170332622A1, “COMPOSITIONS AND METHODS FOR PRESERVATION AND STORAGE OF BIOLOGICAL MATERIALS” (The University of North Carolina at Charlotte, priority 2016, published 2017):
Where two headings read alike, the source gives them in different places.

Experiments:
[1] = Solubility of lysozyme by turbidimetric assay (absorbance at 600 nm); assay type: physicochemical
Experimental: Initial solubility studies were performed on the model protein lysozyme in water. Samples having known concentrations were prepared by weighing the lysozyme and adding the appropriate amount of water to get the desired concentration in mg/mL. The samples were gently inverted several times and stored at room temperature for 1 hour to overnight to allow the protein to rehydrate. Solubility limits were determined via turbidimetric assay.
The samples were then placed in a Biotek Synergy plate reader and absorbance was measured from 200 nm to 900 nm. As FIG. 1 illustrates, lysozyme has a characteristic […] at 280 nm that can be used along with Beer-Lambert's law to measure the concentration, however, for samples above 5 mg/mL, the instrument sensor becomes saturated and the readings are not useful for determining concentration. Therefore, to determine solubility limits, the absorbance at 600 nm was used to indicate the presence of aggregate or particulate in suspension. At this wavelength, far from the characteristic absorbance, any increase in absorbance is an indicator that the protein is not completely in solution. A baseline was established by measuring the absorbance of pure water or TCH solution without any lysozyme. Samples were measured in triplicate and the averages are plotted in the accompanying figures.
To determine the effect of TCH on the solubility of lysozyme, values for the solubility of lysozyme in TCH formulations as a function of water content were obtained. […] There is a characteristic peak proximate 280 nm that can be used can be used along with Beer-Lambert's law to determine concentrations, however, the spectra is near zero away from this peak.

[2] = Thermal stability of lysozyme in TCH by differential scanning calorimetry; assay type: physicochemical
Experimental: TCH solutions were prepared, water was added, and the water content was measured using Karl Fischer titration until the desired solutions were achieved. Lysozyme was weighed into the container and the appropriate amount of TCH was added to achieve a solution with a concentration of approximately 1 mg/mL. Samples were gently inverted several times and left at room temperature for one hour or overnight to allow the lysozyme to rehydrate and go into solution. Some samples were dried by evaporative drying and rehydrated prior to scanning Another sample of lysozyme in 0.1M sodium acetate buffer pH 4 was prepared for comparison.
To determine the stability of lysozyme in TCH over time, a set of samples was prepared at stable moisture contents and stored at the appropriate humidity at room temperature for a period of five weeks. These samples were prepared with a protein concentration of 10 mg/mL prior to storage. After five weeks, they were diluted to approximately 1 mg/mL and scanned using differential scanning calorimetry (DSC).
A Micro-cal VP DSC was used for determining the thermal stability of the protein. A baseline was established by scanning the TCH solution without protein at least three times until repeatability was evident. The TCH solutions used for the baseline scans are identical to the sample solutions, without protein. The baseline scans of the solutions without protein help eliminate noise resultant from variation in the sample cells. […] The concentration of lysozyme in each sample was verified prior to scanning by reading the absorbance at 280 nm on the Biotek Synergy plate reader. […]
The DSC thermal traces were fit in OriginPro with a non-two-state model that includes an output of both calorimetric enthalpy and Van't Hoff enthalpy, Hv. The calorimetric enthalpy is determined by the area under the curve and depends on the selected baseline as well as the normalized concentration. […] The number of intermediate steps in the unfolding process can be determined by taking the ratio of calorimetric enthalpy to Van't Hoff enthalpy. […]

[3] = in NaH2PO4; cited from earlier work
[4] = cited from earlier work

Molecule | solubility ([1]; in TCH 1:4 compositions, all water content levels tested (0.01 to 0.70 grams water per gram dry weight)) | solubility (in words) ([1]; in TCH solutions) | solubility (no indication of solubility issues up to maximum concentration tested) ([1]; in pure water) [mg/mL] | absorbance at 600 nm ([1]; lysozyme in TCH solutions, each sample measured) | degradation after storage ([2]; five weeks of storage in stable TCH solutions, moisture content and/or humidity controlled, room temperature) | thermal unfolding temperature, stored versus fresh samples ([2]; stored five weeks in TCH, DSC) | thermal unfolding temperature ([2]; versus weight percent of TCH in solution, DSC) | ratio of calorimetric to Van't Hoff enthalpies [3] | solubility limit ([4]; 10° C.) | solubility limit ([4]; 20° C.) | water content corresponding to solubility limit ([4]; 20° C.) | solubility limit ([4]; 40° C.) | solubility limit, as water content ([4]; pure trehalose) [% water by weight]
lysozyme | at least 40 mg/mL | readily soluble | ≥ 200 | below 0.05 | no sign of degradation | slightly higher unfolding temperature | increases with increasing concentrations of TCH | ~1 | – | – | – | – | –
OC[C@H]1O[C@H](O[C@H]2O[C@H](CO)[C@@H](O)[C@H](O)[C@H]2O)[C@H](O)[C@@H](O)[C@@H]1O [trehalose] | – | – | – | – | – | – | – | – | 42.3 % (grams trehalose per gram solution) | 46.6 % (grams trehalose per gram solution) | 53.4 % (grams water per gram solution) | 59.7 % (grams trehalose per gram solution) | 53
